Reference: the DeepSol protein solubility set

assay: soluble on expression in E. coli; label from the status in PepcDB or PDB records

| Sequence | soluble on expression in E. coli |
| --- | --- |
| MNMIPKVAMFGTGYVGLVSGVCIADFGINVICVDVDKEKIDGLNNGKIPIYEPGLDVFLERNIKAGRIQFTTDAKMAIEESNVLFIAVGTPPKENGEADMQYVYAVAETIGQYMNGYKVIVDKSTVPVGTGQVVKKIIADKLKERGVEYSFDVVSNPEFLREGKALYDFTHPDRVVIGVESEEVAEIMKKVYRPLYINETPFVITNIETAEMIKYASNAFLATKITFINEIANLCEKVGANVQQVAMAMGRDGRIGPKFLHAGPGFGGSCFPKDTKALVQIAEKHGVQMSVVNAVIEANERQKKMVAEKLEKFAGDLKGKTIGILGLAFKPETDDVREAPALTIIADLIERGASIRAYDPQAMEEAKKALRKYADNITYCKHAYDTAESVDALVIVTEWHEFRNMDLTLLKKIMRGNIFYDARNIYSRKDIEEKGFVFIGTGV | not soluble |
| MSRDSGNDSEVAVTHGEVQEITEENPEIGSMHITQETDISDAPETNTDSSRQRTESTTSVSSESWQNNDEMMSNLRRAQRLLDDGATPLQIIQQIFPDFNASRIATMSENAHFAILSDLLERAPVRQKLTNYNSLADAVELFKTKKHILVLTGAGVSVSCGIPDFRSKDGIYARLRSEFPDLPDPTAMFDIRYFRENPAPFYNFAREIFPGQFVPSVSHRFIKELETSGRLLRNYTQNIDTLEHQTGIKRVVECHGSFSKCTCTRCGQKYDGNEIREEVLAMRVAHCKRCEGVIKPNIVFFGEDLGREFHQHVTEDKHKVDLIVVIGSSLKVRPVALIPHCVDKNVPQILINRESLPHYNADIELLGNCDDIIRDICFSLGGSFTELITSYDSIMEQQGKTKSQKPSQNKRQLISQEDFLNICMKEKRNDDSSDEPTLKKPRMSVADDSMDSEKNNFQEIQKHKSEDDDDTRNSDDILKKIKHPRLLSITEMLHDNKCVAISAHQTVFPGAECSFDLETLKLVRDVHHETHCESSCGSSCSSNADSEANQLSRAQSLDDFVLSDEDRKNTIHLDLQRADSCDGDFQYELSETIDPETFSHLCEEMRI | not soluble |
| MGSDKIHHHHHHEDSNPNALSPGIFWKSEGDIMKGLTSVYGALQPNASWAIPFERYIVIDGYRSDEITHRDDVTSWMNISSFNVEPTNSVVKTEWTNLYKGINYANQCLTNIPTVPGDSESLNALKKQSIAEARFLRAYFYYRLYVNFGERVPIYKEALAGTDEEFYPPQANPGELVSLIETELKEVQSDLPESYEESEKGRVTRYTAAALLGKFYMFRKELSKAEVEFKKIIDKEGSLFGLMENWADNFDGMHKNNKESLFEIQFTGDRSGGQYEYNLFTVHLGPMAGLDAYEEAYPTDWMCQTLLADKTIDGKSSDRALHTLIFDDPECRPFYYKNGKSFKDYHKEGEIFWHKYVTYTEGMSDYWDYSFFNVSVIRYADVLLLYAECLNDKGETTEAINIINKVRARVNVPALPLTMSKAEVLKHLQDKERPCELALEGSRWYDLVRWGIVEETLKAHNKPFVENYVDTKHQLFPIPHSEFLLNPDWEQNPNYSK | not soluble |
| MGSDKIHHHHHHMQEIELKFLVPEPRLKGLMRQAKIKSSQVTQLAAHYYDTPDQQLAQAGIGLRIRQEGNAWVQTIKASGDGIAARLEHNLTLDNEQVQAMLDNNELLPDLTIYKDTPIAPALADFKLKKLAKQLTRLYVTDVERTTRLLIKDTGDEVVNSIEMAYDYGEIIHGTDDTQRDVIQEIEFELISGELDFLFSTAKTWCQRYKLCLSTVTKAERGGRLIKGQSHTPATAADLSELNIDKKIGMPAFLRAVVHNCLLQILPNSSAIVAGSKDNEHLLQLSIGIERLHTVLQAFDSFSDEINPDWSAILQQTATLLTEYRKLAYLSTHIEPRLQKDGAPIVDWTADIDALKITPIAAISTNHFQIMLLELIAFTMSDPSLEPQTDKLAINKLEKILVKYHEKLLKAEQYLEDRYDESDSELENESIIKALHNLHDHLKDLRYISELVAPLYGKKKTKRWLKRTVKAQKTLGQQLNMSDYQQYYQSKASSDFAALYAAGWLNAVLIPMEKATEKRLDKFYACSVFW | not soluble |
| MTFLLKSCSTFFEKFCCCCKKYESEWNTQLESISLFAARRGFTDGEPYLILFGLCPNANKTFIVSENKLSDSNICLGDFLVACSDSPKNLKNFKKVPYPLDVTVEGDYAIISYSSMEAIKDISGILIFQTTDFGPIRSLNQNLDLDEYNITVHATGVSASGHVIELRAKAQPASNYRNSSVYENPSFLDDLSDEPLEIKKTISNNSLDGFSMEQLIQQLPTLELGEAENSVRVPQNLSAPRLMKAFVYSVHQYPHTKFHFLWICDIMEKSILKLPQYDFELGYFFEGIFKQKSNGKWECEQYNNKIEPLINGTVVINEYNGNEKVELTTTVTNYKPKNNTRKWPEVEAKYLGVVYDRHNKLPKNCEGQKVEVQMMKIDKEQYGWVITDILNE | not soluble |
| MSLERKKYNFNSEWRLQIGDFPEAKQSQFDDSRWKAVTLPHAFNEDEAFKVSIEQLTDTVVWYRKHFRIPASGKKQKVFIEFEGVRQAGDFYLNGQYLGKHENGVMAAGFDLTPYIKEGDNVLAVRTDNDWMYREKSTNSKFQWNDRNFNANYGGLPKNVFLYVTDEVYQTLPLYSNLKTTGVYIYAKDIDVKGRTATIHAESEVKNDSREPRQFSYQVVLLDADGKQVKSFEGEKVTLQGGETRVVKAASKVNNLHFWSWGYGYLYTVQTILKDNKNQVFDEVSTRTGFRKTRFAEGKIWLNDRVIQMKGYAQRTSNEWPAVGLSVPAWLSDYSNGLVVKGNGNLVRWMHVTPWKQDVESCDRVGLIQAMPAGDSEKDRTGRQWDQRTELMRDAIIYNRNNPSILFYECGNKGISREHMIEMKAIRDQYDPFGGRAIGSREMLDIREAEYGGEMLYINKSEHHPMWATEYCRDEGLRKYWDEYSYPFHKEGDGPLHRNQPATDYNHNQDMLAIAMIRCWYDYWRERPGTGRRVSSGGAKIIFSDTNTHHRGEENYRRSGVTDPMRIEKDAFFAHQVMWNGWVDTEEDNTYIIGHWNYPANTVKPVYVVSTGEEVELFLNSQSLGKGKREYNFLFTFDNVAFKAGKLEAVSYNKAGKEISRYAVSTVGEPAGLKLTTIQNPEGFHADGADLALIQVEVVDKDGKRCPLDNRTIQFDLKGNAEWRGGIAQGKDNYILNTSLPVECGINRALIRSTTQAGKITLTAKAEGLPSATITLETLPVKVSNGLSTYLPQMTLKGNLDKGKTPLTPSYKDTKRDIRIVSAKAGANNETVNQSFDDNERSEWMNDGKLSTAWITYTLEKEAAIDDICIKLNGWRSRSYPLEVFAGNTMIWSGDTNKSLGYVHLNVEKPVRSKQITIRLKGNTSDQDAFGQITEVAAKAANDMELEAKANKNNANLRIIEIEFLEAIKEGHHHHHH | soluble |
| MGSDKIHHHHHHMARKRDDAALHLPLPEERQVTAFLQAHPDFLVRHPDLLLSLSPPSRWADDDGVLDMQVFMIDRLRDEVERVRGAAEHLIHTSRSNMSIQTRTHRAVLSILGAESMAELVEAISDDLPALLDVDVATLCFEKSEEALPDLLAPGILTLPGGTVAQIMGGADRDCALTEEMPGDPALFGDGAGLVQSSAVVRLSPGGKSPDGVMALGSRHGRTFHAGQATELITFLARVVEGSVRRFVG | not soluble |
| MSLNTRQLLSVGIDIGTTTTQVIFSRLELVNRAAVSQVPRYEFIKREISWQSPVFFTPVDKQGGLKEAELKTLILEQYHAAGIEPESVDSGAIIITGESAKTRNARPAVMALSQSLGDFVVASAGPHLESVIAGHGAGAQTLSEQRLCRVLNIDIGGGTANYALFDAGKISGTACLNVGGRLLETDSHGRVVYAHKPGQMIVDECFGAGTDARSLTGAQLVQVTRRMAELIVEVIDGTLSPLAQALMQTGLLPAGVTPEIITLSGGVGECYRHQPADPFCFADIGPLLATALHDHPRLREMNVQFPAQTVRATVIGAGAHTLSLSGSTIWLEGVQLPLRNLPVAIPIDETDLVGAWQQALIQLDLDPKTDAYVLALPASLPVRYAAVLTVINALVDFVARFPNPHPLLVVAGQDFGKALGMLLRPQLQQLPLAVIDEVIVRAGDYIDIGTPLFGGSVVPVTVKSLAFPSEGHHHHHH | soluble |
| MVFYFKARPDAGDYTIFMGLDKFENEELIKYGFPEDVWFHVDKMSSAHVYLRLHRGQSFDDISEGVLEDCAQLVKANSIQGNKVNNVDVVYTPWSNLKKTASMDVGQVGFHNSKMVRTIRVEKRVNEIVNRLNKTKVERTPDLRAEREAVNAAERAERKQHLREKKKREEIDRLEKERQSEMRSYKGLMVTDKMTSNKDIASSNKSLQELEDDFM | soluble |
| MTESPTTHHGAAPPDSVATPVRPWSEFRLTPAEAAAAAALAARCAQRYDETDGPEFLLDAPVIAHELPKRLRTFMARARLDAWPHALVVRGNPVDDAALGSTPVHWRTARTPGSRPLSFLLMLYAGLLGDVFGWATQQDGRVVTDVLPIKGGEHTLVSSSSRQELGWHTEDAFSPYRADYVGLLSLRNPDGVATTLAGVPLDDLDERTLDVLFQERFLIRPDDSHLQVNNSTAQQGRVEFEGIAQAADRPEPVAILTGHRAAPHLRVDGDFSAPAEGDEEAAAALGTLRKLIDASLYELVLDQGDVAFIDNRRAVHGRRAFQPRYDGRDRWLKRINITRDLHRSRKAWAGDSRVLGQR | soluble |
| RPPLQEYVRKLLYKDLSKVTTEKVLRQMRKLPWQDQEVKDYVICCMINIWNVKYNSIHCVANLLAGLVLYQEDVGIHVVDGVLEDIRLGMEVNQPKFNQRRISSAKFLGELYNYRMVESAVIFRTLYSFTSFGVNPDGSPSSLDPPEHLFRIRLVCTILDTCGQYFDRGSSKRKLDCFLVYFQRYVWWKKSLEVWTKDHPFPIDIDYMISDTLELLRPKIKLCNSLEESIRQVQDLEREFLIKLGLVN | soluble |
| EVQLVESGGGLVKPGGSLRLSCAASGFTFSSYSMNWVRQAPGKGLEWVSSISSSSSYISYADSVKGRFTISRDNAKNSLYLQMNSLRAEDTAVYFCARDYDFWSAYYDAFDVWGQGTMVTVSSASTKGPSVFPLAPSSKSTSGGTAALGCLVKDYFPEPVTVSWNSGALTSGVHTFPAVLQSSGLYSLSSVVTVPSSSLGTQTYICNVNHKPSNTKVDKKVEPKSCAADEVDHHHHHH | soluble |
| MRVLIVKTSSMGDVLHTLPALTDAQQAIPGIKFDWVVEEGFAQIPSWHAAVERVIPVAIRRWRKAWFSAPIKAERKAFREALQAKNYDAVIDAQGLVKSAALVTRLAHGVKHGMDWQTAREPLASLFYNRKHHIAKQQHAVERTRELFAKSLGYSKPQTQGDYAIAQHFLTNLPTDAGEYAVFLHATTRDDKHWPEEHWRELIGLLADSGIRIKLPWGAPHEEERAKRLAEGFAYVEVLPKMSLEGVARVLAGAKFVVSVDTGLSHLTAALDRPNITVYGPTDPGLIGGYGKNQMVCRAPGNELSQLTANAVKQFIEENAEKAAMI | soluble |
| MLTETEGRAAVKLARKTIEIFLSKGKSPRPDASGVELSPVFEEYRGVFVTLTEGGLLRGCIGHPYPDSTLKEAILDSAISAATRDPRFPTVEQDEMKNILVEVTILTQPEKINASPKELPDKVEIGKHGLIVKQGYCQGLLLPQVAPENDMDSIDFLSHTCMKAGLSPDAWVKGAEVYCFEGQIFKEKEPDGEVIEEKFLEHHHHHH | soluble |
| MAHHHHHHMFSRHSLWVPAASHFPKFVEHFNRFLKASPHNVELQKALCYKEEETQLLIIQDPKARQPIFAMAFPFTVTSALCDGSRMGLGTFTSLVDTTTSLHVAAALLPTNDMHVSVSLQTNCVQPITAGEKVVMISRMDKFGKRLAFLSARLLRLDDVYENTVAPTAGRELEELERQLSQYQTLANGTHVKCILTGKS | not soluble |
| GLGFETMRDGIKVAAKETLLTPRFYTTDFDEMEQLFSKEINPNLDMEELNACLNEFRNDYNKVHFVRNETFKAAADKVTGETRRIFIEFLERSCTAEFSGFLLYKELARRMKASSPEVAEMFLLMSRDEARHAGFLNKALSDFNLALDLGFLTKNRTYTYFKPKFIIYATFLSEKIGYWRYITIYRHLQRNPDNQFYPLFEYFENWCQDENRHGDFLAACLKAKPELLNTFEAKLWSKFFCLSVYITMYLNDHQRTKFYESLGLNTRQFNQHVIIETNRATERLFPVVPDVEDPRFFEILNKMVDVNAKLVELSASSSPLAGLQKLPLLERMASYCLQLLFFKEKDVGSVDIAGSGASRNLAY | not soluble |
